Data as given in article PMC6475807 (Biochemistry, 2018).
Read-outs that look alike come from different tables or passages of the source.

B1: ^coreAFG3L2^E408Q (enzyme)
chain: not shown
B2: ^coreAFG3L2^E575Q (enzyme)
chain: not shown

Columns and labels:
[1] = molecular target: the molecule itself; experiment: SEC
[2] = molecular target: the molecule itself; experiment: SEC; remark: listed apart in the source

| Protein | stoichiometry N [1] | stoichiometry N [2] |
| --- | --- | --- |
| B1 | 6 | – |
| B2 | – | 6 |
